Patent publication US20260242482A1 (ONO PHARMACEUTICAL, published 2026)
Each block holds one binder with its values, some of them ahead of it.

Tests used:
mouse PD-L1 [1] = biological target: T1, mouse PD-L1 (mouse, UniProt Q9EP73 19-290); experiment: as described for the mutants of Test 3; no separate experiment told for the double mutant
T1 construct: Overexpressed on IIAdL1 cells or DOdKO cells; also called mPD-L1; CD274

mouse PD-L1 [2] = biological target: T1, mouse PD-L1; experiment: as described for the mutants of Test 3 (PD-1-EC staining of cells co-expressing PD-L1)
human PD-L1 [3] = biological target: T2, human PD-L1 (human, UniProt Q9NZQ7 19-290); experiment: co-immunoprecipitation, IIAdL1 cells expressing the human molecules, western blot
T2 construct: Expressed on IIAdL1 or DOdKO cells; also called hPD-L1
T2 sequence (Q9NZQ7 19-290 limits assumed): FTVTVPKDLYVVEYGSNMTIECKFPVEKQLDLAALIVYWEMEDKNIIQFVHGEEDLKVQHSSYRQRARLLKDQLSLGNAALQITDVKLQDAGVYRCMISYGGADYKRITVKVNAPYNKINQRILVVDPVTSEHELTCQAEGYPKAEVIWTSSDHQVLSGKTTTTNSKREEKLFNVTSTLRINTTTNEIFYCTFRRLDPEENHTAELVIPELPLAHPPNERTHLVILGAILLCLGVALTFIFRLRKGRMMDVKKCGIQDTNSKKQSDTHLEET

human PD-L1 [4] = biological target: T2, human PD-L1; experiment: flow cytometry; PD-1-EC staining of IIAdL1 cells (FIG. 29)
human PD-L1 [5] = biological target: T2, human PD-L1; experiment: as described for the mutants of Test 4; no separate experiment told for the double mutant
human PD-L1 [6] = biological target: T2, human PD-L1; experiment: flow cytometry; DOdKO-hPD-L1/hCD80 cells pretreated with 30 ug/mL TKMF5, stained with human PD-1-EC
mouse PD-L1 [7] = biological target: T1, mouse PD-L1; experiment: flow cytometry; DOdKO-mPD-L1/mCD80 cells pretreated with 10 ug/ml TKMG48 or control IgG, stained with mouse PD-1-EC; (TKMG48 treated group-control group)/(control IgG group-control group)
mouse CD80 = biological target: T3, mouse CD80 (mouse, UniProt Q00609 38-306); experiment: flow cytometry, IIAdL1 cells expressing CD80 alone, soluble PD-1-EC
T3 construct: Overexpressed on IIAdL1 cells or DOdKO cells; also called mCD80
T3 sequence: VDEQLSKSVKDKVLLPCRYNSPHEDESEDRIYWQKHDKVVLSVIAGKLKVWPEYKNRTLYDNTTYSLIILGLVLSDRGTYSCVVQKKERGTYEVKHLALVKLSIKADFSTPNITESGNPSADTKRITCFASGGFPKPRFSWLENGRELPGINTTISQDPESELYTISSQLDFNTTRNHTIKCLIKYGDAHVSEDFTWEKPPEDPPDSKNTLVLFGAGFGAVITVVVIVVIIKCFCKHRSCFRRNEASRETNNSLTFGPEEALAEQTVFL

T1 sequence (Q9EP73 19-290 limits assumed): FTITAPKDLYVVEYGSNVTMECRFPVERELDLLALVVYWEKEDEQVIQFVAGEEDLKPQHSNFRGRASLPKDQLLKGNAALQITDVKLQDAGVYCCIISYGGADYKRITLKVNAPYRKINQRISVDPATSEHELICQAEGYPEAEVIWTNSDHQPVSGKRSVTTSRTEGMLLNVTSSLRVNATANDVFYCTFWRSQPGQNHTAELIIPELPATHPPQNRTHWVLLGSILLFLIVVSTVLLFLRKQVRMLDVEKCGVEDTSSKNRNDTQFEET

B1: mouse CD80 with the L96E and L107E mutations (ligand)
chain: VDEQLSKSVKDKVLLPCRYNSPHEDESEDRIYWQKHDKVVLSVIAGKLKVWPEYKNRTEYDNTTYSLIIEGLVLSDRGTYSCVVQKKERGTYEVKHLALVKLSIKADFSTPNITESGNPSADTKRITCFASGGFPKPRFSWLENGRELPGINTTISQDPESELYTISSQLDFNTTRNHTIKCLIKYGDAHVSEDFTWEKPPEDPPDSKNTLVLFGAGFGAVITVVVIVVIIKCFCKHRSCFRRNEASRETNNSLTFGPEEALAEQTVFL
binding result (mouse PD-L1 [1]): no binding

B2: mouse CD80 with the L96E mutation (ligand)
chain: VDEQLSKSVKDKVLLPCRYNSPHEDESEDRIYWQKHDKVVLSVIAGKLKVWPEYKNRTEYDNTTYSLIILGLVLSDRGTYSCVVQKKERGTYEVKHLALVKLSIKADFSTPNITESGNPSADTKRITCFASGGFPKPRFSWLENGRELPGINTTISQDPESELYTISSQLDFNTTRNHTIKCLIKYGDAHVSEDFTWEKPPEDPPDSKNTLVLFGAGFGAVITVVVIVVIIKCFCKHRSCFRRNEASRETNNSLTFGPEEALAEQTVFL
notes: also called CD80 L96E
binding result (mouse PD-L1 [2]): no binding

B4: human CD80 (ligand)
chain: VIHVTKEVKEVATLSCGHNVSVEELAQTRIYWQKEKKMVLTMMSGDMNIWPEYKNRTIFDITNNLSIVILALRPSDEGTYECVVLKYEKDAFKREHLAEVTLSVKADFPTPSISDFEIPTSNIRRIICSTSGGFPEPHLSWLENGEELNAINTTVSQDPETELYAVSSKLDFNMTTNHSFMCLIKYGHLRVNQTFNWNTTKQEHFPDNLLPSWAITLISVNGIFVICCLTYCFAPRCRERRRNERLRRESVRPV
notes: Expressed on IIAdL1, DOdKO or DOdPD cells; also called hCD80
binding result (human PD-L1 [3]): binds

B8: human PD-1-EC (receptor)
chain: LDSPDRPWNPPTFSPALLVVTEGDNATFTCSFSNTSESFVLNWYRMSPSNQTDKLAAFPEDRSQPGQDCRFRVTQLPNGRDFHMSVVRARRNDSGTYLCGAISLAPKAQIKESLRAELRVTERRAEVPTAHPSPSPRPAGQFQDYKDDDDK
notes: domain: five-stranded coiled coil domain; also called human PD-1 extracellular region soluble chimeric protein; hPD-1; not shown: five-stranded coiled coil domain of cartilage oligomer matrix protein (Terskikh et al. 1997), fused to the C-terminus
ratio of cells that bound to PD-1-EC (human PD-L1 [6]): ~50%

Now from value to binder:

binding result (mouse PD-L1 [2]): no binding
B3: mouse CD80L107E (ligand)
chain: VDEQLSKSVKDKVLLPCRYNSPHEDESEDRIYWQKHDKVVLSVIAGKLKVWPEYKNRTLYDNTTYSLIIEGLVLSDRGTYSCVVQKKERGTYEVKHLALVKLSIKADFSTPNITESGNPSADTKRITCFASGGFPKPRFSWLENGRELPGINTTISQDPESELYTISSQLDFNTTRNHTIKCLIKYGDAHVSEDFTWEKPPEDPPDSKNTLVLFGAGFGAVITVVVIVVIIKCFCKHRSCFRRNEASRETNNSLTFGPEEALAEQTVFL
notes: also called L107E mutant

binding result (human PD-L1 [4]): no binding
B5: human CD80I92E (ligand)
chain: VIHVTKEVKEVATLSCGHNVSVEELAQTRIYWQKEKKMVLTMMSGDMNIWPEYKNRTEFDITNNLSIVILALRPSDEGTYECVVLKYEKDAFKREHLAEVTLSVKADFPTPSISDFEIPTSNIRRIICSTSGGFPEPHLSWLENGEELNAINTTVSQDPETELYAVSSKLDFNMTTNHSFMCLIKYGHLRVNQTFNWNTTKQEHFPDNLLPSWAITLISVNGIFVICCLTYCFAPRCRERRRNERLRRESVRPV

binding result (human PD-L1 [4]): no binding
B6: human CD80L104E mutant (ligand)
chain: VIHVTKEVKEVATLSCGHNVSVEELAQTRIYWQKEKKMVLTMMSGDMNIWPEYKNRTIFDITNNLSIVIEALRPSDEGTYECVVLKYEKDAFKREHLAEVTLSVKADFPTPSISDFEIPTSNIRRIICSTSGGFPEPHLSWLENGEELNAINTTVSQDPETELYAVSSKLDFNMTTNHSFMCLIKYGHLRVNQTFNWNTTKQEHFPDNLLPSWAITLISVNGIFVICCLTYCFAPRCRERRRNERLRRESVRPV

binding result (human PD-L1 [5]): no binding
B7: human CD80 mutant (having I92E and L104E mutations) lacking the ability to bind to human PD-L1 (ligand)
chain: VIHVTKEVKEVATLSCGHNVSVEELAQTRIYWQKEKKMVLTMMSGDMNIWPEYKNRTEFDITNNLSIVIEALRPSDEGTYECVVLKYEKDAFKREHLAEVTLSVKADFPTPSISDFEIPTSNIRRIICSTSGGFPEPHLSWLENGEELNAINTTVSQDPETELYAVSSKLDFNMTTNHSFMCLIKYGHLRVNQTFNWNTTKQEHFPDNLLPSWAITLISVNGIFVICCLTYCFAPRCRERRRNERLRRESVRPV

amount of binding (mean fluorescence intensity) after TKMG48 pretreatment relative to control IgG pretreatment (mouse PD-L1 [7]): ~10.1 times | binding result (mouse CD80): no binding
B9: soluble mouse PD-1 extracellular region (PD-1-EC) protein (receptor)
chain: LEVPNGPWRSLTFYPAWLTVSEGANATFTCSLSNWSEDLMLNWNRLSPSNQTEKQAAFCNGLSQPVQDARFQIIQLPNRHDFHMNILDTRRNDSGIYLCGAISLHPKAKIEESPGAELVVTERILETSTRYPSPSPKPEGRFQDYKDDDDK
notes: domain: five-stranded coiled coil domain; Soluble chimeric protein from 293T or Plat-E culture supernatant; also called mouse PD-1-EC; mPD-1; not shown: five-stranded coiled coil domain of cartilage oligomer matrix protein (Terskikh et al. 1997), fused to the C-terminus
